The nature of data set [1]: Liquid phase kinetic assay of purified MAO-N variants, substrate N-amylamine. The format is biochemical. The method, then:
(§1) Selected variants were overexpressed by BL21 (DE3) E. coli strain in 700 mL of LB medium with 100 μg mL^−1 ampicillin. 0.5 mM of IPTG was introduced to the culture when OD600 reached 0.6 and the culture was incubated at 25° C., 180 rpm. Cells were harvested after 16-20 hours and purified using 5 mL Histrap FF crude column (GE Healthcare) with an AKTA Explorer 100 protein purification system as described (55).
(§2) A range of amine stock solutions including α-methylbenzylamine, N-amylamine, butylamine, benzylamine or cyclohexylamine (all from Sigma) were prepared in 0.1 M potassium phosphate pH 7.7. The final concentration range of the substrate was between 0.5 mM to 100 mM. A colourimetric assay solution was made up by dissolving Pyrogallol red (0.3 mM final concentration) in 0.1 M potassium phosphate, pH 7.7. The assay was conducted by combining 35 μL of substrate solution, 50 μL of Pyrogallol red solution and 5 μL of horseradish peroxidase (1 mg mL^−1) in a flat bottom 96-well plate and started by adding 110 μL of purified MAO-N. Assay progress was monitored at 550 nm at 25° C. in a Molecular Devices Spectramex M2 plate reader. The data were analysed using Prism7 (GraphPad) which was also used to calculate kinetic parameters such as kcat, km and Vmax.

Data set [2] in a line: Liquid phase kinetic assay of purified MAO-N variants, substrate butylamine. The class given is biochemical. As for the experimental part:
as §1, §2

Data set [3] is described as follows: Liquid phase kinetic assay of purified MAO-N variants, substrate benzylamine. The class given is biochemical. The method, then: as §1, §2
Data set [4] is described as follows: MAO-N variant activity to native primary amine substrates (taken together). The class given is biochemical. The settings on record: range over native substrates. The method, then:
as §1, §2

For data set [5] the following is noted: cited from earlier work; for kcat, substrate AMBA: Table 3.
The nature of data set [6]: Liquid phase kinetic assay of purified MAO-N variants, substrate α-methylbenzylamine. The following applies: Table 4; kcat for α-methylbenzylamine. The format is biochemical. The method, then: as §1, §2
Setting [7] is: Table 4, α-methylbenzylamine, Reference {Alexeeva 2002}.

We go through 2 molecules from patent US20210147829A1, “VARIANT NUCLEOTIDE LIBRARY” (The University of Manchester, priority 2017, published 2021).

Residue numbers refer to the chain shown, from its start. In names and notes the source's numbering stands.

B1: WT: Wild type monoamine oxidase-N (MAO-N, A. niger), an amine-oxidising biocatalyst (protein, UniProt P46882 1-495, looked up)
Monoamine oxidase N: MTSRDGYQWTPETGLTQGVPSLGVISPPTNIEDTDKDGPWDVIVIGGGYCGLTATRDLTVAGFKTLLLEARDRIGGRSWSSNIDGYPYEMGGTWVHWHQSHVWREITRYKMHNALSPSFNFSRGVNHFQLRTNPTTSTYMTHEAEDELLRSALHKFTNVDGTNGRTVLPFPHDMFYVPEFRKYDEMSYSERIDQIRDELSLNERSSLEAFILLCSGGTLENSSFGEFLHWWAMSGYTYQGCMDCLISYKFKDGQSAFARRFWEEAAGTGRLGYVFGCPVRSVVNERDAARVTARDGREFAAKRLVCTIPLNVLSTIQFSPALSTERISAMQAGHVNMCTKVHAEVDNKDMRSWTGIAYPFNKLCYAIGDGTTPAGNTHLVCFGTDANHIQPDEDVRETLKAVGQLAPGTFGVKRLVFHNWVKDEFAKGAWFFSRPGMVSECLQGLREKHRGVVFANSDWALGWRSFIDGAIEEGTRAARVVLEELGTKREVKARL
Broadly, the kcat is the maximal rate divided by the concentration of active sites. Take B1: the “kcat, substrate AA” value in data set [1] (Table 3) came out at 387 min⁻¹. In data set [1] (Table 5), the “kcat N-amylamine (AA)” value came out at 387 min⁻¹. Besides, the “kcat, substrate BTA” value in data set [2] (Table 3) amounted to 394 min⁻¹. Moreover, in data set [2] (Table 5), the “kcat Butylamine (BTA)” value was 394 min⁻¹. In addition, the “kcat, substrate BZA” value in data set [3] (Table 3) is 262 min⁻¹. Further, in data set [3] (Table 5), the “kcat Benzylamine (BZA)” value is 262 min⁻¹. The “kcat for several primary amine substrates ('wild type speed')” value in data set [4] is 262 to 394 min⁻¹. The “kcat, substrate AMBA” value in data set [5] (Reference {Alexeeva 2002}) was 0.17 min⁻¹. The kcat in data set [5] (setting [7]) was 0.17 min⁻¹. Besides, the “kcat towards α-MBA” value in data set [5] (wild type, literature value) is 0.17 min⁻¹.

B2: D1 N336S: MAO-N variant D1 with mutation N336S, Reference {Alexeeva 2002} (protein, UniProt P46882 1-495, looked up, variant N336S)
Monoamine oxidase N: B1 Monoamine oxidase N with N336S
For orientation: Km means the concentration of substrate that gives half-maximal velocity. On to B2, for which the “Improvement over wild type” value in data set [6] is listed as 40-fold. Further, the “kcat, substrate AMBA” value in data set [5] (Reference {Alexeeva 2002}) was 8.0 min⁻¹. Besides, in data set [5] (setting [7]), the Michaelis-Menten constant (Km) is 400 µM and the kcat is 8.0 min⁻¹.
